Pseudovirus entry, percentage of usage (min-max scaled), without hTMPRSS2 data for one substance are collected here from article doi:10.1101/2024.11.22.624870.

The test deals with camel APN (aminopeptidase N) (camel).

Substance “hCoV/229E-inf1 spike protein (S) (from UniProt P15423 16-1173) (natural protein)” displayed a pseudovirus entry, percentage of usage (min-max scaled), without hTMPRSS2 of 3%.
